From paper PMC10415612 come the findings set out here.

Like-named read-outs stand apart in the source and are kept apart here.

The target of experiment [1] is bacterial proteasome activator (Bpa), fluorescein-labelled (M. tuberculosis) (UniProt P9WKX3). The experiment can be described thus: MST.
Experiment [2] shares this target.
For experiment [3], the target named is bacterial proteasome activator (Bpa), labelled with RED-NHS second generation dye (M. tuberculosis) (UniProt P9WKX3). The experiment can be described thus: MST; temperature-related fluorescence intensity changes (T-jump model) on a Monolith NT.115; 250 nM Bpa-RED protomer titrated with serial dilutions of peptides 1-7; buffer M (50 mM HEPES-KOH pH 7.5, 150 mM NaCl, 5 mM MgCl2, 5% glycerol, 0.1% pluronic 127, 2% DMSO); 25°C; qualitative screen, then peptide 1 in triplicates.

Experiment [4] deals with bacterial proteasome activator (Bpa), fluorescein-labelled (M. tuberculosis) (UniProt P9WKX3). As to the kind of experiment: MST. This is another data set of the same source.

In experiment [1], HspR H24A (natural protein) displayed an equilibrium dissociation constant (Kd) of 12.1 µM. In experiment [2], this substance yielded a Bpa-mediated proteasomal degradation by 20S CP WT, SDS-PAGE time course, 37°C (unlabelled Bpa) (% degraded after 2 h) of 90.

The substance HspR peptide 1 (residues 16-30) registered an equilibrium dissociation constant (Kd) in experiment [3] of 330 µM.

Substance “HspRΔC9, C-terminal truncation variant of HspR (domain or fragment)” gave a Kd in experiment [4] of 3.62 µM. Turning to “heat shock repressor HspR, wild type (natural protein)”, the results for the Kd in experiment [1] and in experiment [4] were 3.56 µM and 5.6 µM, respectively. This substance also registered a Bpa-mediated proteasomal degradation by 20S CP WT, SDS-PAGE time course, 37°C (unlabelled Bpa) (min to degradation) in experiment [2] of less than 5.

As a reminder, the Kd is the free concentration of one partner at which half of the binding sites on the other are occupied at equilibrium, for simple one-to-one binding.
